Data taken from patent publication US20230338565A1, “ANTIBODY DRUG CONJUGATE, PREPARATION METHOD THEREFOR AND USE THEREOF” (SICHUAN KELUN-BIOTECH BIOPHARMACEUTICAL CO., LTD., priority 2020, published 2023).
Changes are numbered by the printed parent chain. One block for each molecule: values may come before it.

What was measured:
[1] = molecular target: T1, human Claudin 18.2 on cell membrane (Homo sapiens, UniProt P56856); assay: Affinity to HEK293T-Claudin 18.2 by flow cytometry; conditions: binding to HEK293T-Claudin 18.2 cells
T1 construct: expressed in transfected cells
Protocol: (§1) The affinity of 2C6.9-hz21 to human Claudin 18.2 on cell membrane was detected using HEK293T-Claudin 18.2 cells. The specific procedures were as follows: HEK293T-Claudin 18.2 cells were detached and centrifuged, followed by being washed twice with PBS. And then the cells were resuspended in PBS containing 1% BSA and were plated into a 96-well tip bottom plate at 300000 cells per well in a volume of 50 μl for 20 wells in total. […] of 2C6.9-hz21 and IMAB362 antibody were separately then added with 11 concentrations starting from 1000 nM with three-fold dilution to each well. Human IgG was served as negative control. The reactions were mixed well and incubated for 1 h at 4° C. in the dark, followed by three times of washing with PBS, the FITC-labelled anti-human Fc secondary antibody (Biolegend, 409322) was added and incubated for 0.5 h at 4° C. in the dark. Detection was performed by flow cytometry (Beckman, Cytoflex) after being washed for three times with PBS.

human Claudin 18.2 = molecular target: T2, human Claudin 18.2 (Homo sapiens, UniProt P56856); assay: Cell ELISA on L929-Claudin 18.2 cells; conditions: binding to L929-Claudin 18.2 cells, Cellular ELISA
T2 construct: expressed in transfected cells; cells formaldehyde-fixed for the cell ELISA
Protocol: Human Claudin18.2 belongs to the tetraspanin family and has a complex structure. Cell ELISA was thus carried out to maintain the structure of Claudin18.2. The stable cell lines L929-Claudin 18.2 constructed in 6.1 were used for detection. Specifically, L929-Claudin 18.2 adherent cells were detached by 2 mM EDTA treatment. The cells were resuspended and adjusted to 2×10^5/mL and 100 μL of the resuspension was plated into a 96-well plate and incubated overnight at 37° C. The next day, the media was removed, and the plate was washed with PBS once. 100 μL/well 4% formaldehyde was added to the plate. After 30 min of incubation at room temperature, formaldehyde was removed, followed by being washed twice with PBS. Blocking buffer (PBS containing 2% BSA) was then added to the plate at 100 μL/well, and incubated at 37° C. for 2 h. After removal of blocking buffer, 100 μL/well of serially diluted antibodies (starting from 1 μM, with 4-fold dilution, for a total of 11 concentrations) were added to the corresponding wells, which were incubated at 37° C. for 2 h afterwards. The plate was washed with 250 μL PBST for 5 times, and was allowed to stand for 2 min each time. […] The OD450 nm absorbance values were obtained on a plate reader (MD, SpectraMax M2) and the results were subjected to curve fitting by Graphpad Prism. […]

[2] = test system: HEK293T-Claudin 18.2 cells; assay: ADCC, NK cell mediated killing assay; type: cell-based, human; conditions: NK92MI-CD16a effector cells, LDH detection
Protocol: 2C6.9 belongs to IgG1 subtype and has relative strong antibody-dependent cell-mediated cytotoxicity (ADCC). NK cell mediated killing assay was used to determine the ADCC activity of 2C6.9. The specific procedures were as follows: HEK293T-Claudin 18.2 cells were harvested and centrifuged, followed by adjustment of cell density. 1×10^4/well of cells were plated on a plate and incubated overnight. The medium was removed on the next day. NK92MI-CD16a cells (Huabo Biopharm) were centrifuged, resuspended in MEMA medium and adjusted to 1×10^6/mL, then 50 μL/well cells were added to the corresponding wells. 2C6.9-hz21 and IMAB362 antibodies were diluted with MEMA medium. For HEK293T-Claudin18.2 cells, 10 antibody concentrations were tested, starting from 40 μg/mL with 5-fold dilution. For NUGC-4 cells, 11 antibody concentrations were tested, starting from 2 mg/mL with 5-fold dilution. 50 μL/well of the diluted antibodies were added to the corresponding wells and the reactions were left to stand in incubator at 37° C., 5% CO2 and incubated for 5.5 h. Lysis buffer was then added to the positive control well and incubated for another 0.5 h. 50 μL/well of Lactate Dehydrogenase (LDH) detection agent (DOJINDO LABORATORISE, CK12) were added to the wells and the absorbance at 490 nm were taken every 10 min on a microplate reader (MD, SpectraMax M2). […]

human Claudin18.2 [3] = molecular target: T3, human Claudin18.2 (human, UniProt P56856-2 1-261); assay: cell-based or functional assay
human Claudin18.2 [4] = molecular target: T3, human Claudin18.2; assay: cell-based or functional assay; remark: listed apart in the source
human Claudin18.2 [5] = molecular target: T3, human Claudin18.2; assay: cell-based or functional assay; remark: listed apart in the source
human Claudin18.2 [6] = molecular target: T3, human Claudin18.2; assay: cell ELISA on formaldehyde-fixed L929-Claudin 18.2 cells, HRP anti-human IgG
Protocol: (§2) Human Claudin18.2 belongs to the tetraspanin family and has a complex structure. Cell ELISA was thus carried out to maintain the structure of Claudin18.2. […] The cells were resuspended and adjusted to 2×10⁵/mL and 100 μL of the resuspension was plated into a 96-well plate and incubated overnight at 37° C. The next day, the media was removed, and the plate was washed with PBS once. 100 μL/well 4% formaldehyde was added to the plate. After 30 min of incubation at room temperature, formaldehyde was removed, followed by being washed twice with PBS. Blocking buffer (PBS containing 2% BSA) was then added to the plate at 100 μL/well, and incubated at 37° C. for 2 h. After removal of blocking buffer, 100 μL/well of serially diluted antibodies (starting from 1 μM, with 4-fold dilution, for a total of 11 concentrations) were added to the corresponding wells, which were incubated at 37° C. for 2 h afterwards. The plate was washed with 250 μL PBST for 5 times, and was allowed to stand for 2 min each time. 100 μL/well of horseradish peroxidase labeled anti-Human IgG secondary antibody (HRP-anti-Human IgG, Jackson ImmunoResearch, 109-035-003) diluted 1:10000 in PBS (containing 2% BSA) was added to the plate. […] The OD450 nm absorbance values were obtained on a plate reader (MD, SpectraMax M2) and the results were subjected to curve fitting by Graphpad Prism.

human Claudin18.2 [7] = molecular target: T3, human Claudin18.2; assay: flow cytometry on HEK293T-Claudin 18.2 cells, FITC anti-human Fc secondary antibody
Protocol: as §1, with “The” for “The affinity of 2C6.9-hz21 to human Claudin 18.2 on cell membrane was detected using HEK293T-Claudin 18.2 cells. The”

human Claudin18.1 = molecular target: T4, human Claudin18.1 (human, UniProt P56856 1-261); assay: flow cytometry on HEK293T-human Claudin 18.1 cells, FITC anti-human Fc secondary antibody
T4 construct: whole, on cells
Protocol: The specificity of candidate antibodies was detected by FACS. […] After being washed twice with PBS, the cells were resuspended with PBS containing 1% BSA. 300000 cells for each cell line were added with the candidate antibodies at a final concentration of 1000 nM, mixed well, and incubated for 1 h at 4° C., protected from light. Then the cells were washed for three times with PBS and FITC-labeled anti-human Fc secondary antibody (BioLegend, 409322) was added, followed by 0.5 h of incubation at 4° C. in the dark. Detection was performed by flow cytometry (Beckman, Cytoflex) after being washed with PBS for three times.

human Claudin18.2 [8] = molecular target: T3, human Claudin18.2; assay: cell ELISA on L929-Claudin 18.2 cells
Protocol: as §2

B1: humanized antibody 2C6.9-hz21 (antibody, human IgG1, kappa, V domains shown)
VH: QVQLQESGPGLVKPSETLSLTCTVSGFSLTRYGVSWIRQPPGKGLEWIGVIWGEGNTNYNPSLKSRVTISKDSSKSQVSLKLSSVTAADTAVYYCARVNFGNALDYWGQGTLVTVSS
VL: DIVMTQSPDSLAVSLGERATINCKSSQSLLNSGNQKNYLTWYQQKPGQPPKLLIYWASTRDSGVPDRFSGSGSGTDFTLTISSLQAEDVAVYYCQNDFIFPLTFGGGTKVEIKR
notes: Humanized from murine 2C6.9M; Expressed in Expi293F cells and purified on protein A; also called 2C6.9 mAb; humanized monoclonal antibody 2C6.9
4-hour internalization ratio on NUGC-4 cells (flow cytometry) (human Claudin18.2 [3]): 37.8% | CDC activity, EC50 value (human Claudin18.2 [4]): 1.36 µg/mL | ADCC activity, EC50 value (human Claudin18.2 [5]): 0.0677 µg/mL | EC50 (human Claudin18.2 [6]): 0.12 nM | EC50 (human Claudin18.2 [7]): 5.77 nM | binding result (human Claudin18.1): no binding (tested: 1000 nM)

B3: IMAB362 (antibody, V domains shown)
VH: QVQLQQPGAELVRPGASVKLSCKASGYTFTSYWINWVKQRPGQGLEWIGNIYPSDSYTNYNQKFKDKATLTVDKSSSTAYMQLSSPTSEDSAVYYCTRSWRGNSFDYWGQGTTLTVSS
VL: DIVMTQSPSSLTVTAGEKVTMSCKSSQSLLNSGNQKNYLTWYQQKPGQPPKLLIYWASTRESGVPDRFTGSGSGTDFTLTISSVQAEDLAVYYCQNDYSYPFTFGSGTKLEIKR
CDC activity, EC50 value (human Claudin18.2 [4]): 3.32 µg/mL | ADCC activity, EC50 value (human Claudin18.2 [5]): 0.0577 µg/mL | EC50 (human Claudin18.2 [6]): 0.15 nM | EC50 (human Claudin18.2 [7]): 8.22 nM

Second part, led by results:

Max MFI [1]: 156715.7 | Max signal value (OD450) (human Claudin 18.2): 0.53
Molecule: IMAB362: control anti-Claudin 18.2 antibody, sequences from patent CN 101312989 B [reference compound]
Max. cytotoxicity (%) [2]: 20%

binding result (human Claudin18.2 [8]): binds
B2: humanized antibody 2C6.9-hz11 (antibody, human IgG1, kappa, V domains shown)
VH: B1 VH with E54D
VL: B1 VL
notes: Human IgG1 / kappa
